Laboratory results taken from the supplement of paper PMC7877785.
± gives the uncertainty stated by the source.

Test: self-splicing fitness, log relative to wild type (ln ratio); higher = more splicing; Tetrahymena group I intron in knt gene, E. coli kanamycin selection, DiMSum; sequences stand for … in CUCUCU…GGAGGGAAAAGUUAUCAGGCAUGCACCUGGUAGCUAGUCUUUAAACCAAUAGAUUGCAUCGGUUUAAAAGGCAAGACCGUCAAAUUGCGGGAAAGGGGUCAACAGCCGUUCAGUACCAAGUCUCAGGGGAAACUUUGAGAUGGCCUUGCAAAGGGUAUGGUAAUAAGCUGACGGACAUGGUCCUAACCACGCAGCCAAGUCCUAAGUCAACAGAUCUUCUGUUGAUAUGGAUGCAGUUCACAGACUAAAUGUCGGUCGGGGAAGAUGUAUUCUUCUCAUAAGAUAUAGUCGGACCUCUCCUUAAUGGGAGCUAGCGGAUGAAGUGAUGCAACACUGGAGCCGCUGGGAACUAAUUUGUAUGCGAAAGUAUAUUGAUUAGUUUUGGAGUACUCGUGGUCG
In short: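 The eight P1ex-region nucleotides of an intron in the knt kanamycin-resistance gene on pET-22b(+) were all randomised and the library put into E. coli BL21(DE3). Six replicate transformations were grown overnight at 37°C or 30°C on LB agar with or without 25 μg/mL kanamycin, together with 100 μg/mL carbenicillin, 50 μM IPTG and 0.2% rhamnose. Colonies were pooled and amplicon-sequenced on an Illumina HiSeq 2500. Fitness from DiMSum is the error-weighted combination of wild-type-normalised replicate fold changes, kanamycin over none.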

| Sequence | self-splicing fitness (ln) (30 °C) | self-splicing fitness (ln) (37 °C) |
| --- | --- | --- |
| CAUAAGCAAUAUUACGACUA | -1.94 ± 0.095 | -0.427 ± 0.078 |
| UCCUAGCAAUAUUACGGCCG | -4.16 ± 0.42 | -3.12 ± 0.37 |
| GGUUAGCAAUAUUACGACGU | 0.152 ± 0.071 | 0.738 ± 0.089 |
| AGUCAGCAAUAUUACGUACA | -0.657 ± 0.074 | 0.284 ± 0.11 |
| GCCGAGCAAUAUUACGAGAC | -2.93 ± 0.11 | -1.54 ± 0.1 |
| AAAGAGCAAUAUUACGCGAA | -2.83 ± 0.2 | -1.46 ± 0.24 |
| CACGAGCAAUAUUACGCGGU | -3.13 ± 0.15 | -3.5 ± 0.24 |
| GCCGAGCAAUAUUACGAAGU | -2.51 ± 0.35 | -1.14 ± 0.24 |
| GGAGAGCAAUAUUACGCUUA | -2.12 ± 0.14 | -0.41 ± 0.14 |
| GUGCAGCAAUAUUACGAGGA | -3.01 ± 0.2 | -1.74 ± 0.29 |
| UGAUAGCAAUAUUACGGACU | -1.17 ± 0.099 | 0.214 ± 0.18 |
| CAUAAGCAAUAUUACGGCCC | -3.92 ± 0.4 | – |
| CUAUAGCAAUAUUACGGACG | 0.217 ± 0.093 | 0.437 ± 0.12 |
| GUAGAGCAAUAUUACGCAGU | -1.39 ± 0.11 | -1.45 ± 0.17 |
| AAGGAGCAAUAUUACGUAGA | -3.27 ± 0.26 | -1.46 ± 0.18 |
| AGCCAGCAAUAUUACGCGCG | -1.15 ± 0.075 | -0.281 ± 0.076 |
| GUAAAGCAAUAUUACGUCCU | 0.164 ± 0.11 | 0.663 ± 0.16 |
| GCCGAGCAAUAUUACGAGGC | -3.23 ± 0.35 | -2.3 ± 0.37 |
| UAAGAGCAAUAUUACGACAA | -3.57 ± 0.43 | -1.79 ± 0.29 |
| UACAAGCAAUAUUACGGUAA | -2.12 ± 0.1 | -1.15 ± 0.1 |

| Sequence | self-splicing fitness (ln) (30 °C) | self-splicing fitness (ln) (37 °C) |
| --- | --- | --- |
| UCUAAGCAAUAUUACGACGA | -0.414 ± 0.2 | 0.116 ± 0.17 |
| CUGCAGCAAUAUUACGACUC | -3.27 ± 0.26 | -1.98 ± 0.27 |
| GUAUAGCAAUAUUACGAAAC | – | -1.02 ± 0.49 |
| GAUCAGCAAUAUUACGGCCU | -1.13 ± 0.22 | -1.18 ± 0.23 |
| AGCGAGCAAUAUUACGAGAU | -4.2 ± 0.3 | -2.15 ± 0.19 |
| CCACAGCAAUAUUACGUCCC | -3.18 ± 0.43 | -2.06 ± 0.4 |
| GAAAAGCAAUAUUACGCUUA | -2.27 ± 0.14 | -1.39 ± 0.14 |
| CAGAAGCAAUAUUACGCUUC | – | -3.54 ± 0.4 |
| GGGGAGCAAUAUUACGGCAC | -1.39 ± 0.18 | -1.06 ± 0.3 |
| GGAGAGCAAUAUUACGGCAA | -2.75 ± 0.47 | -1.59 ± 0.43 |
| GGUGAGCAAUAUUACGAUUU | -1.35 ± 0.23 | -0.612 ± 0.25 |
| GCUGAGCAAUAUUACGCCAA | – | -3.52 ± 0.46 |
| UGCAAGCAAUAUUACGAUUG | -1.93 ± 0.14 | -1.55 ± 0.12 |
| UAUCAGCAAUAUUACGUAUA | -0.696 ± 0.088 | -0.258 ± 0.1 |
| GUCGAGCAAUAUUACGUGAG | -0.54 ± 0.076 | -0.266 ± 0.096 |
| UUUGAGCAAUAUUACGGCAC | -2.87 ± 0.41 | -2.56 ± 0.31 |
| CUAUAGCAAUAUUACGUGUC | -4.02 ± 0.24 | -3.09 ± 0.27 |
| UGGCAGCAAUAUUACGCUCA | -0.353 ± 0.13 | 0.629 ± 0.18 |
| AAAGAGCAAUAUUACGCCAC | -3.45 ± 0.49 | -2.83 ± 0.47 |
